Assay results as given in patent publication US20190309274, “IL-10 RECEPTOR ALPHA HOMING ENDONUCLEASE VARIANTS, COMPOSITIONS, AND METHODS OF USE” (bluebird bio, Inc., published 2019).
Positions count from the first letter of the chain named.

Tests used:
[1] = target: T1, IL-10Rα.G7.A3 I-OnuI homing endonuclease variant (Artificial (Ophiostoma novo-ulmi I-OnuI …)); assay: cell_activity; chromosomal mCherry reporter in HEK 293T; variant isolated by display sorting under 50 pM affinity conditions
T1 chain: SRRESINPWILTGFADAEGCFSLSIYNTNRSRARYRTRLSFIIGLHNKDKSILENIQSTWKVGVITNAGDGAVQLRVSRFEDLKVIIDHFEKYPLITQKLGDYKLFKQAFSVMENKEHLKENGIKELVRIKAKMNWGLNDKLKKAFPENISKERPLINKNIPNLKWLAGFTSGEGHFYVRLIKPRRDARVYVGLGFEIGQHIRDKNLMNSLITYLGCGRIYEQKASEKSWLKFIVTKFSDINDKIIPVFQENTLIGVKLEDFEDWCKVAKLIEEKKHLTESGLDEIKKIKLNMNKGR
Description: The activity of reprogrammed I-OnuI HEs that target exon 2 of the IL-10Rα gene was measured using a chromosomally integrated fluorescent reporter system (Certo et. al., 2011). Fully reprogrammed I-OnuI HEs that bind and cleave the IL-10Rα target sequence were cloned into mammalian expression plasmids and then individually transfected into a HEK 293T […] cell line that was reprogrammed to contain the IL-10Rα target sequence upstream of an out-of-frame gene encoding the fluorescent mCherry protein. Cleavage of the embedded target site by the HE and the subsequent accumulation of small insertions or deletions, caused by DNA repair via the non-homologous end joining (NHEJ) pathway, results in approximately one out of three repaired loci placing the fluorescent reporter gene back “in-frame”. mCherry fluorescence is therefore a readout of endonuclease activity at the chromosomally embedded target sequence. […] FIG. 3.
A secondary I-OnuI variant library was generated by performing random mutagenesis on one of the reprogrammed I-OnuI HEs that targets the IL-10Rα target site, identified in the initial reporter screen (IL-10Rα.G7, SEQ ID NO: 6). In addition, display-based flow sorting was performed under more stringent affinity conditions (50 pM) to isolate variants with improved binding characteristics. FIG. 3. […]

[2] = target: T2, IL-10Rα.G7.A3.G7 I-OnuI homing endonuclease variant (Artificial (Ophiostoma novo-ulmi I-OnuI …)); assay: flow; yeast surface display substrate titration; stated as sub-nanomolar affinity, exact value only in figure; conditions: tags: yeast surface display
T2 chain: T1 chain with N55S, H176Y

B1: IL-10Rα exon 2 HE target site (dsDNA)
DNA 1: GGTGGAAAAATTCTGCTTCAAA
DNA 2: TTTGAAGCAGAATTTTTCCACC
Binder B1 has an activity [1] of roughly 2 fold vs IL-10Rα.G7 and a Kd [2] of less than 1 nM.
